{"source": "paper PMC6585716", "about": "(Biopolymers, 2017)", "binders": {"B1": {"name": "Bi-LV (X-VEPNCDIHVMWEWECFERL-Tz4-lfrew) (designed binder)", "peptide 1": "{code X}-VEPNCDIHVMWEWECFERL", "peptide 2": "[dL][dF][dR][dE][dW]", "modifications": "not fully specified; printed as X-VEPNCDIHVMWEWECFERL-Tz4-lfrew; cysteine pairing not given here; reading uncertain; also: chain 1 C-terminus joined to chain 2 N-terminus via Tz4", "notes": "also called anti-VEGF biligand PCC"}, "B2": {"name": "Tetra-LV (X-VEPNCDIHVMWEWECFERL-Tz4-lfrew-Tz4-eeird-Tz4-qfkyr) (designed binder)", "peptide 1": "{code X}-VEPNCDIHVMWEWECFERL", "peptide 2": "[dL][dF][dR][dE][dW]", "peptide 3": "[dE][dE][dI][dR][dD]", "peptide 4": "[dQ][dF][dK][dY][dR]", "modifications": "cysteine pairing not given here; reading uncertain; also: chains joined via Tz4 linkers, N-terminal X not defined, triazole to a chain's N/C-terminus, triazole to a chain's N/C-terminus, triazole to a chain's N/C-terminus, printed as X-VEPNCDIHVMWEWECFERL-Tz4-lfrew-Tz4-eeird-Tz4-qfkyr", "notes": "also called tetraligand"}, "B3": {"name": "Tri-LV (X-VEPNCDIHVMWEWECFERL-Tz4-lfrew-Tz4-eeird) (designed binder)", "peptide 1": "{code X}-VEPNCDIHVMWEWECFERL", "peptide 2": "[dL][dF][dR][dE][dW]", "peptide 3": "[dE][dE][dI][dR][dD]", "modifications": "cysteine pairing not given here; reading uncertain; also: chains joined via Tz4 linkers, N-terminal X not defined, triazole to a chain's N/C-terminus, triazole to a chain's N/C-terminus, printed as X-VEPNCDIHVMWEWECFERL-Tz4-lfrew-Tz4-eeird", "notes": "also called consensus triligand; 64Cu-DOTA-Tri-LV (N-terminal DOTA conjugate, in vivo)"}}, "details_in_all_cases": "both partners purified", "key": {"[1]": {"biological_target": "Recombinant human vascular endothelial growth factor (VEGF165) (human, UniProt P15692-4 1-191, X (detection label) on the N-terminus; disulfide bridge between the two cysteines cyclises …; C-terminal Tz4 (1,4-triazole formed of Az4 and D-propargylglycine) joins it to lfrew | all D-res)", "sequence (P15692 other isoform, or with tags, fused parts or gaps)": "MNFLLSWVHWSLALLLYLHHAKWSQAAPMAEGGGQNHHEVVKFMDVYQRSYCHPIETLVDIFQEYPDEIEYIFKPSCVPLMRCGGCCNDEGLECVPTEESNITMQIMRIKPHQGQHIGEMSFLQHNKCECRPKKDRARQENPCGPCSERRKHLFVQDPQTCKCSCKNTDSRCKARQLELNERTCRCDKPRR", "assay": "not stated; titration giving EC50 ('relative affinities') of PCCs on VEGF, Figure 2A; experimental details in the Supporting Information"}, "[2]": {"biological_target": "T1, Recombinant human vascular endothelial growth factor (VEGF165) (human, UniProt P15692-4 1-191, X (detection label) on the N-terminus); disulfide bridge between the two cysteines cyclises …; C-terminal Tz4 (1,4-triazole linker) joins it to lfrew | all D-residues (printed in lowercase: l)", "T1 sequence (P15692 other isoform, or with tags, fused parts or gaps)": "as above", "assay": "not stated; titration giving EC50 ('relative affinities') of PCCs on VEGF, Figure 2A; experimental details in the Supporting Information"}, "[3]": {"biological_target": "T1, Recombinant human vascular endothelial …", "assay": "inhibition assay; inhibition of VEGF binding to VEGFR2 in the presence of PCCs, Figure 2B; experimental details in the Supporting Information"}}, "note": "Non-standard residues stand in square brackets, D forms with d. No end group written: not given here. code X = not defined here", "data": [{"binder": "B1", "values": [{"measurement": "fold improvement in EC50 relative to AnchorV", "setting": "[1]", "value": 4.5, "unit": "fold"}]}, {"binder": "B2", "values": [{"measurement": "EC50", "setting": "[2]", "value": "6.1 ± 0.2", "unit": "nM"}, {"measurement": "IC50", "setting": "[3]", "value": "0.74 ± 0.05", "unit": "nM"}]}, {"binder": "B3", "values": [{"measurement": "IC50", "setting": "[3]", "value": "2.6 ± 0.5", "unit": "nM"}]}]}
